Experimental data reported in publication PMC8769072, “Proteome‐scale mapping of binding sites in the unstructured regions of the human proteome” (Molecular Systems Biology, 2022).
Where no end group is shown, it is not given here. [ ]: non-standard residue; d: D form. The star is where a group is joined. FITC = O=C1OC2(c3ccc(O)cc3Oc3cc(O)ccc32)c2ccc(NC(=S)*)cc21; pS = N[C@@H](COP(=O)(O)O)C(=O)O

How the values were obtained:
[1] = target: KEAP1 Kelch domain, MBP-tagged (human) (UniProt Q14145); assay: fluorescence polarisation; competition: unlabelled peptide in serial dilution against FITC-labelled probe peptide and protein (master mix with protein at four times the KD), 50 mM KPO4 pH 7.5; sigmoidal dose-response fit, KI
[2] = target: KEAP1 Kelch (kelch-like ECH-associated protein 1, Kelch domain) (human) (UniProt Q14145); assay: fluorescence polarisation; competition: unlabelled peptide in serial dilution against the protein domain (master mix at four times the KD) with its FITC-labelled probe peptide; 50 mM KPO4 or NaPO4 pH 7.5; Ki calculated from IC50
[3] = target: MDM2 SWIB, cleaved from the His‐GST tag, for affinity measurements (human); assay: fluorescence polarisation; competition: unlabelled peptide in serial dilution displaces a FITC-labelled probe peptide from the bait domain (master mix with protein at four times the KD of the probe, 10 nM probe, 2 mM DTT); 50 mM KPO4 or NaPO4 pH 7.5; triplicates; probe for KEAP1 Kelch: FITC-NFE2L1 228-243, other probes in Dataset EV6
[4] = target: KPNA4 ARM, MBP‐tagged domain, for affinity measurements (human); assay: fluorescence polarisation; competition on MBP-tagged KPNA4 ARM: unlabelled peptide in serial dilution displaces FITC-Myc 320-328 (probe for the major pocket) or FITC-NCOR2 1307-1322 (probe for the minor pocket); 50 mM KPO4 pH 7.5; triplicates
[5] = target: KPNA4 ARM (importin subunit alpha-3, armadillo repeat domain) (human) (UniProt O00629); assay: fluorescence polarisation; direct saturation binding: protein in serial dilution, FITC-labelled probe peptide fixed (master mix 10 nM probe, 2 mM DTT); 50 mM KPO4 or NaPO4 pH 7.5; quadratic fit
[6] = target: MDM2 SWIB (E3 ubiquitin-protein ligase MDM2, SWIB domain) (human) (UniProt Q00987); assay: fluorescence polarisation; competition: unlabelled peptide in serial dilution against the protein domain (master mix at four times the KD) with its FITC-labelled probe peptide; 50 mM KPO4 or NaPO4 pH 7.5; Ki calculated from IC50
[7] = target: KPNB1 HEAT (importin subunit beta-1, HEAT repeat) (human) (UniProt Q14974); assay: as above
[8] = target: KPNB1 HEAT (importin subunit beta-1, HEAT repeat) (human) (UniProt Q14974); assay: fluorescence polarisation; direct saturation binding: protein in serial dilution, FITC-labelled probe peptide fixed (master mix 10 nM probe, 2 mM DTT); 50 mM KPO4 or NaPO4 pH 7.5; quadratic fit
[9] = target: TLN1 PTB (talin-1, phosphotyrosine binding-like domain) (human) (UniProt Q9Y490); assay: fluorescence polarisation; competition: unlabelled peptide in serial dilution against the protein domain (master mix at four times the KD) with its FITC-labelled probe peptide; 50 mM KPO4 or NaPO4 pH 7.5; Ki calculated from IC50
[10] = target: TLN1 PTB (talin-1, phosphotyrosine binding-like domain) (human) (UniProt Q9Y490); assay: fluorescence polarisation; direct saturation binding: protein in serial dilution, FITC-labelled probe peptide fixed (master mix 10 nM probe, 2 mM DTT); 50 mM KPO4 or NaPO4 pH 7.5; quadratic fit
[11] = target: SFN 14-3-3 (14-3-3 protein sigma) (human) (UniProt P31947); assay: fluorescence polarisation; competition: unlabelled peptide in serial dilution against the protein domain (master mix at four times the KD) with its FITC-labelled probe peptide; 50 mM KPO4 or NaPO4 pH 7.5; Ki calculated from IC50
[12] = target: SFN 14-3-3 (14-3-3 protein sigma) (human) (UniProt P31947); assay: fluorescence polarisation; direct saturation binding: protein in serial dilution, FITC-labelled probe peptide fixed (master mix 10 nM probe, 2 mM DTT); 50 mM KPO4 or NaPO4 pH 7.5; quadratic fit

B1: ATF5 128-143 peptide (peptide)
peptide: PPLPPPPLPPAPSLPY
- Ki [1]: 1470 µM
- IC50 [2]: 4430 µM
- Ki [2]: 1470 µM

B2: TREF1 332-347 peptide (peptide)
peptide: YMQHLQEQQQQQMHLQ
- Ki [1]: 162 µM
- IC50 [2]: 490 µM
- Ki [2]: 162 µM

B3: RNF115_(69–84) peptide, synthetic (peptide)
peptide: THFAELWGHLDHTMFF
- Ki [3]: 0.17 µM

B4: NKX2‐5_(192–207) K194R mutant peptide, synthetic, P52952 192-207 (peptide)
peptide: KCRRQRQDQTLELVGL
- fold loss of affinity against the wild-type peptide [4]: 10 fold

B5: FITC-Myc 320-328 probe peptide (peptide)
peptide: {FITC}-PAAKRVKLD
- Kd [5]: 0.03 µM

B6: FITC-NCOR2 1307-1322 probe peptide (peptide)
peptide: {FITC}-PKRTYDMMEGRVGRAI
- Kd [5]: 0.23 µM

B7: KIAA1671 600-615 peptide (peptide)
peptide: TPEDDRSFQTVWATVF
- IC50 [6]: 73 µM
- Ki [6]: 1.76 µM

B8: RNF115 69-84 peptide (peptide)
peptide: THFAELWGHLDHTMFF
- IC50 [6]: 9 µM

B9: NUMB 616-630 peptide with an added N-terminal G (peptide)
peptide: GFEAQWAALENKSKQR
- IC50 [6]: 130 µM

B10: NUP153 1220-1234 peptide with an extra C-terminal Y (peptide)
peptide: Ac-NPPVATFVFGQSSNPY-NH2
- IC50 [7]: 49 µM
- Ki [7]: 11 µM

B11: RANBP3 11-26 peptide (peptide)
peptide: Ac-AYAPPVFVFQKDKGQK-NH2
- IC50 [7]: 2200 µM

B12: FITC-NUP153 1223-1232 probe peptide (peptide)
peptide: {FITC}-VATFVFGQSS-NH2
- Kd [8]: 106 µM

B13: PIP5K1C 640-655 peptide, unlabelled (peptide)
peptide: FPTDERSWVYSPLHYS-NH2
- IC50 [9]: 0.42 µM
- Ki [9]: 0.066 µM

B14: TPTE 112-125 peptide (peptide)
peptide: DLIFTDSKLYIPLE-NH2
- IC50 [9]: 15 µM
- Ki [9]: 4.9 µM

B15: NYAP1 542-557 peptide (peptide)
peptide: VGPLTPLWTYPATAAG-NH2
- IC50 [9]: 62 µM
- Ki [9]: 20 µM

B16: Integrin beta-3 763-778 peptide (peptide)
peptide: AKWDTANNPLYKEATS-NH2
- IC50 [9]: 1430 µM
- Ki [9]: 480 µM

B17: FITC-PIP5K1C 640-655 probe peptide (peptide)
peptide: {FITC}-FPTDERSWVYSPLHYS-NH2
- Kd [10]: 0.15 µM

B18: MAP1A 1831-1847 peptide (peptide)
peptide: Ac-NEPTTPSWLADIPPWVP-NH2
- IC50 [11]: 1970 µM

B19: FITC-RAF phosphopeptide probe (peptide)
peptide: {FITC}-QRST[pS]TPNVH-NH2
- Kd [12]: 524 µM
